Reference: publication PMC3183026 (Molecular Biology of the Cell, 2011)

Target: DCC (endogenous, embryonic rat cortical neurons) (rat (endogenous in E18 cortical neurons), UniProt Q63155 26-1445)
Experiment: co-IP

Sequence of DCC (endogenous, embryonic rat cortical neurons) (Q63155 26-1445): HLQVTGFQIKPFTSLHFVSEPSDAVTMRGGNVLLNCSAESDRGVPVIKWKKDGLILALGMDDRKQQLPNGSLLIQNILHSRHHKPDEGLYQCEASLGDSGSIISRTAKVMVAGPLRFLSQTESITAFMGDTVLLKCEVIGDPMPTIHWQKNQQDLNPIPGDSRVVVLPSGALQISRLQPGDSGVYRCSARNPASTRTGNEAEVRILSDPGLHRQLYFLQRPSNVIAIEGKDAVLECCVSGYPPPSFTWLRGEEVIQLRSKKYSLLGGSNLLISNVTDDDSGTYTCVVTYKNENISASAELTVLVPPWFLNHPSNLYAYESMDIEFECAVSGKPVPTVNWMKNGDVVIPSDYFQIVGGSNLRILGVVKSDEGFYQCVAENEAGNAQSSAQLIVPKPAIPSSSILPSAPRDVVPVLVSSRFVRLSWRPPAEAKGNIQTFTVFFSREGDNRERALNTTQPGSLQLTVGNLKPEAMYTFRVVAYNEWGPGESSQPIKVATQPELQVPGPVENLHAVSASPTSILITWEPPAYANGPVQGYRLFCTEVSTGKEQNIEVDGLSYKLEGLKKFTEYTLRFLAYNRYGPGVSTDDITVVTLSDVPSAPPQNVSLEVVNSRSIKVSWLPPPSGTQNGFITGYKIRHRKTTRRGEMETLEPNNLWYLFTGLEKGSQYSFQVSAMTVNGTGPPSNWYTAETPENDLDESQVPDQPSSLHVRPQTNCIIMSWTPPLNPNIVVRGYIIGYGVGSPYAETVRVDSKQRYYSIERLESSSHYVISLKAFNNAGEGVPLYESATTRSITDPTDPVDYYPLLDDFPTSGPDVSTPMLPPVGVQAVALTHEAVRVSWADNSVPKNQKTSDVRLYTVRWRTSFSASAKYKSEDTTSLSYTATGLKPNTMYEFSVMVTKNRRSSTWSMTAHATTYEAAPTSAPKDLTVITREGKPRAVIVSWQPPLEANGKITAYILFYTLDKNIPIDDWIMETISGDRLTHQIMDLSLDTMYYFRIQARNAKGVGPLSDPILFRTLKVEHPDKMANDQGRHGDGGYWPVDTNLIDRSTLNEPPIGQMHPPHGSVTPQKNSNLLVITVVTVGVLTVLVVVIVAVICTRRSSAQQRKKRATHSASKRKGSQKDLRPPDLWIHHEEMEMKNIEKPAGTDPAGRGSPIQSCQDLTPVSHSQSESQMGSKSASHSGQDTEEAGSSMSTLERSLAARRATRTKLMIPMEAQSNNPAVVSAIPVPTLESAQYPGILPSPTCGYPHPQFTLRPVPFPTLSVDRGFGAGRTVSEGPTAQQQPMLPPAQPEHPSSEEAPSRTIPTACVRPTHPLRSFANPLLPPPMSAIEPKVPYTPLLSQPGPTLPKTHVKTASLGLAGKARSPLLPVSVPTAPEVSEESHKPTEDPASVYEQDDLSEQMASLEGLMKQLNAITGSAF

B1: ezrin (endogenous, embryonic rat cortical neurons) (natural protein)
chain: MPKPINVRVTTMDAELEFAIQPNTTGKQLFDQVVKTIGLREVWYFGLQYVDNKGFPTWLKLDKKVSAQEVRKENPVQFKFRAKFYPEDVADELIQDITQKLFFLQVKEGILSDEIYCPPETAVLLGSYAVQAKFGDYNKEMHKSGYLSSERLIPQRVMDQHKLSRDQWEDRIQVWHAEHRGMLKDSAMLEYLKIAQDLEMYGINYFEIKNKKGTDLWLGVDALGLNIYEKDDKLTPKIGFPWSEIRNISFNDKKFVIKPIDKKAPDFVFYAPRLRINKRILQLCMGNHELYMRRRKPDTIEVQQMKAQAREEKHQKQLERQQLETEKKRRETVEREKEQMLREKEELMLRLQDFEQKTKRAEKELSEQIEKALQLEEERRRAQEEAERLEADRMAALRAKEELERQAQDQIKSQEQLAAELAEYTAKIALLEEARRRKEDEVEEWQHRAKEAQDDLVKTKEELHLVMTAPPPPPPPVYEPVNYHVQEGLQDEGAEPMGYSAELSSEGILDDRNEEKRITEAEKNERVQRQLLTLSNELSQARDENKRTHNDIIHNENMRQGRDKYKTLRQIRQGNTKQRIDEFEAM
B1 was tested, and the “fold increase relative to unstimulated neurons” value was 6 fold.
